Experimental data reported in PMC9678342.

Columns and labels:
[1] = target: HSV-1 glycoprotein D, C-terminal truncated mutant gD285 (aa 1-285) (herpes simplex virus type 1 (HSV-1)); assay: AUC; sedimentation velocity, gD alone at 5, 10 and 20 uM in PBS pH 7.8, 20 C, 40k rpm, absorbance optics, c(s) distributions in SedFit; monomer and dimer species, said not to be in a monomer-dimer equilibrium
[2] = target: HSV-1 glycoprotein D, C-terminal truncated mutant gD306 (aa 1-306) (herpes simplex virus type 1 (HSV-1)); assay: as above
HVEM (Homo sapiens) = HVEM (Homo sapiens) (UniProt Q92956); conditions: cited from earlier work
Chain of UniProt Q92956 (Q92956 39-283): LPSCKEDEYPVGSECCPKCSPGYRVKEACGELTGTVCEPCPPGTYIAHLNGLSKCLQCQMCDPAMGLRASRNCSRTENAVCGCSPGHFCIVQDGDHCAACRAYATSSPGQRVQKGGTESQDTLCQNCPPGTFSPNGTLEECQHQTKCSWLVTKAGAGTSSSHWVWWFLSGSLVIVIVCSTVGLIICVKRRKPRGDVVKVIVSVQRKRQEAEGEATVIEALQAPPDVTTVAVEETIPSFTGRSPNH

HSV-1 glycoprotein D, C-terminal truncated mutant gD285 (aa 1-285) (domain or fragment)
stoichiometry N [1]: 2

HSV-1 glycoprotein D, C-terminal truncated mutant gD306 (aa 1-306) (domain or fragment)
stoichiometry N [2]: 2

glycoprotein D (gD285) gD285 (from UniProt Q69091)
Kd (HVEM (Homo sapiens)): 37 nM
